Measured values as given in the DeepSol protein solubility set.

Experiment: soluble on expression in E. coli; label from the status in PepcDB or PDB records

With “MGSDKIHHHHHHMMTDTHASKNTSTDRSTLDEETVPGGGHTSFILKRGQILQITDVEGGGNVGLLLFNAHQTSERLNLPDTLKGQHTAKLTAGYCLYSDMGRVLAAIVTDTCGWHDSMGGVLNAQEVHEKYGQGRYQELRNGFFRNGMDNLLVEMGKWNLNLQDLLMTINLFSKVTVDAQGQFRFHANHSQAGNYIELYAPMDTLVVLTALQHPMDPNPTYAPRPIALTWSRAEGEDVAKYCREFREENARAFHNTERGYL” the “soluble on expression in E. coli” value was “not soluble”.
In the case of “MAAAAELSLLEKSLGLSKGNKYSAQGERQIPVLQTNNGPSLMGLTTIAAHLVKQANKEYLLGSTAEEKAMVQQWLEYRVTQVDGHSSKNDIHTLLMDLNSYLEDKVYLTGYNFTLADILLYYGLHRFIVDLTVQEKEKYLNVSRWFCHIQHYPGIRQHLSSVVFIKNRLYTNSH”, the “soluble on expression in E. coli” value is reported as “soluble”.
For “DDFVSLGTSGWHARVVSTVSDPSEVRQFALPDGGILRIASVLSVGGTADWARSVLLPGVSAKEADALMLQRPRLATGLLSLPSIQGESFPVRSHSVGGCILGMRGNQDPLTLYTAVIEGICMTLAHDIKPGGILPATGGGARSVPWMRILASVTNRNIHVTVSEDAALHGAASLAAYATSAEYLPTLAARAIVEIEPEPEVVASFEPLIAKHLELFRFAAALSY”, the “soluble on expression in E. coli” value was “not soluble”.
With “MGSDKIHHHHHHMNRVVVGLQWGDEGKGKVVTYLSRYHDIVARFSGGANAGHTVNYGDFKVIHHLLPSADFTKNRGIAIGSGVLLDPQVLTEELRELKEKFPDYSGEIFISESAHVVLPVHKEMDRIIDEVLKIGTTKRGIGPACADRVMRVNVRVAELGNEEKLRYFLEKNLSLKKIYGVDFDAEKMMGDLSTFYETIKDFVVSPVQLKRILEEKSVLFEGTQGVLLDLDVGTYPYVTSMNCSSSGVSAGMGFPVEVDEVLGVFKAYTTRVGEGPFPTELTGEEGEKLRKAGHEYGSTTGRPRRCGWLDLPLLRYAIEISGVDSLVMTKADVLNGFEKIKVCVRYSDGRDLVSLRDLEKKEPVYEVFDGWKSLEDKNFERFVDFIERETGRPVRYISTGEKLEDIVEV” the “soluble on expression in E. coli” value was “not soluble”.
In the case of “MIFAAIADIHGNCAALEAVLEDIAKLGIKDIVNLGDCFSGPLEAGFTGDVLVGNWIPSIRGNHDRELIERAPENMGSWEKPAHAQLTAAHLDWLHTLPFSMVFRDVAYCCHGSPLGDLDYWLETLSPEGVLKLRPLAEIEERAEGITQPLMLCGHTHIPRAVQLSDGRLIVNPGSVGCPGWKDDTPFDHHVEAGHALATYAVLEETGRGWQVYFRNIRYDNLAMSEMARVNGIPYLADALTNGWLKR”, the “soluble on expression in E. coli” value is reported as “not soluble”.
In the case of “SERTQSSNMETRLDAMKELAKLSADVTFATEFINMDGIIVLTRLVESGTKLLSHYSEMLAFTLTAFLELMDHGIVSWDMVSITFIKQIAGYVSQPMVDVSILQRSLAILESMVLNSQSLYQKIAEEITVGQLISHLQVSNQEIQTYAIALINALFLKAPEDKRQDMANAFAQKHLRSIILNHVIRGNRPIKTEMAHQLYVLQVLTFNLLEERMMTKMDPNDQAQRDIIFELRRIAFDAESDPSNAPGSGTEKRKAMYTKDYKMLGFTNHINPAMDFTQTPPGMLALDNMLYLAKVHQDTYIRIVLENSSREDKHECPFGRSAIELTKMLCEILQVGELPNEGRNDYHPMFFTHDRAFEELFGICIQLLNKTWKEMRATAEDFNKVMQVVREQITRALPSKPNSLDQFKSKLRSLSYSEILRLRQSERMSQDDFQSPPIVELREKIQPEILELIKQQRLNRLCEGSSFRKIGNRRRQERFWYCRLALNHKVLHYGDLDDNPQGEVTFESLQEKIPVADIKAIVTGKDCPHMKEKSALKQNKEVLELAFSILYDPDETLNFIAPNKYEYCIWIDGLSALLGKDMSSELTKSDLDTLLSMEMKLRLLDLENIQIPEAPPPIPKEPSSYDFVYHYG”, the “soluble on expression in E. coli” value is reported as “not soluble”.
For “MIRGEYLLRELNQNILLQSCQEFVKDYLDTICSFYLGKEVWYRFTELTNTEANCLVGTKEFFDEGHPLFGYRGTRRLLACLDEFQAEAHVVTEVYQTNPNLSVIFPFVNDADQLKQAITVLRQQGFTGKVGTMIELPSAYFDLSSILETGISKIVVGMNDLTSFVFATMRNSQWHDMESPIMLDMLRDMQDKARKNKIDFAVAGYLNTSFIQKMNQLGIKCIIHYSSIPEIFDLEIDHPDHLKHIKEESKKLQRSTHDTARNVE”, the “soluble on expression in E. coli” value was “soluble”.
For “MGSDKIHHHHHHMAKLMNNKLKKEIIDFAHSIGIDSIGFTTADPFDELKQKLEEYHAKGYASGFEESNISLRTEPKLSLPSARSIIAIAVGYPNKLKGAPKSVKGDRRGMFARASWGQDYHSIMRKRLDKLADFIKEKVPDVEIQSMVDTGVLSDRAVAERAGLGFTGRNGFVISPELGTWSYLGEMLVSIPFEPDDPLLDSCGDCTICVDRCPTGALVGNGQLNSQKCISFLTQTKGYLQDEYRYKIGNRLYGCDTCQQVCPKNRGINTQHDDIVLEPEILKPRLVPLLQMSNKKFKSTYGHLAGAWRGKKPIQRNAIIALAHFKEESAIPELKEVALNDPRPMIRGTAYWAIGQILEDDAISFIDEHYENEIEEVQLEMKKGLQMRREQK”, the “soluble on expression in E. coli” value was “not soluble”.
For “VGKEKAEVELLQVDADLQAEIVGKYNADLQKAVQIEEKKAREIATEAVKEHVTAEYEERYAEHEEHDRIMRDVAEILEQMEHAEVRRLITEDKVRPDGRRVDEIRP”, the “soluble on expression in E. coli” value was “not soluble”.
In the case of “EGLDYLTAPNPPSIREELCTASHDTITVHWISDDEFSISSYELQYTIFTGQANFISLYNSVDSWMIVPNIKQNHYTVHGLQSGTRYIFIVKAINQAGSRNSEPTRLKTNSQPFK”, the “soluble on expression in E. coli” value is reported as “soluble”.
With “MEMNRRRSRGFMIAKLMPFCKAVKSPTPSQDLYNNVHYTSSTTTSYARQPDFNNYVTATTPLPPKVSFLLQPSLAPEGKDMEKKLNMMAEKLIGRGINGVDDCVDARAASYISSVRERFKADQYCEKLTTVISLDDEN” the “soluble on expression in E. coli” value was “soluble”.
For “GLGGFTRTRNKGKSNVIDMIQKYIESKGMPIENWDITVGYCTNLEEAEKYRDDVEAQLGVKLLERREDFKTRISIISGCHTGPYALGIACIPKYTTIRL”, the “soluble on expression in E. coli” value was “not soluble”.
In the case of “MRVQILKDFVKQHFPATPLLDYALEVEKITTSKKPNLILNVDGFIGVAFVDMLRNCGSFTREEADEYVDIGALNGIFVLGRSMGFIGHYLDQKRLKQGLYRHPWDDISYVLPEHMSM”, the “soluble on expression in E. coli” value is reported as “not soluble”.
For “MSILNDYKRKTEGSVFWAQRARSVMPDGVTADTRAFDPHGLFISDAQGVHKTDVDGNVYLDFFGGHGALVLGHGHPRVNAAIAEALSHGVQYAASHPLEVRWAERIVAAFPSIRKLRFTGSGTETTLLALRVARAFTGRRMILRFEGHYHGWHDFSASGYNSHFDGQPAPGVLPETTANTLLIRPDDIEGMREVFANHGSDIAAFIAEPVGSHFGVTPVSDSFLREGAELARQYGALFILDEVISGFRVGNHGMQALLDVQPDLTCLAKASAGGLPGGILGGREDVMGVLSRGSDRKVLHQGTFTGNPITAAAAIAAIDTILEDDVCAKINDLGQFAREAMNHLFARKGLNWLAYGRFSGFHLMPGLPPNTTDTGSITRAEVARPDVKMIAAMRMALILEGVDIGGRGSVFLSAQHEREHVEHLVTTFDRVLDRLADENLLSWQGTNLSGNQS”, the “soluble on expression in E. coli” value was “soluble”.
With “MFCGRFANFIMRDVINFIKKYNNFVIIGHKDPDFDCIGSSLALSSFLSRIGKNSILLNEGPFIRKEIVPFKDKFLSEWPNIEISEYSVIILDCSILDRIGDEFIFYVKNMPTLVIDHHMSGEKLECEGYIDPFAPSTTFLIEKLIREFGHDLTKEEAWYILVGFCTDTGFFKFISRSDPEPFEMVARLVSKGISLKEVYSYIETTKSLKSIETLKLMLNSLESYWNGKVLFTFLSSSSSGKDGGVSGVNELFYMILSNVENNEILGILKEMEDGSIIVGLRSKDSFDVGKLAEDFGGGGHKNASGFRIKQGSLEIVKNRMLAYIKDNIYLLEHHHHHH” the “soluble on expression in E. coli” value was “not soluble”.
With “MSLAESPLEIHVIADSTGETAVRLARAARSQFEGVHWHIVRHPMIGTVPEMVSALEAVSEAHEAGQWVCVVHTLVLPDMRRMVSDACEEMGIRELDLMGPMLEAMEEASGLDADAVPRRPVGVEADYFTRISAMEFAVRNDDGAIPDRLTEADICLVGVSRSGKTPLSIYLGYLGYKTVNVPLVPGIAPPTELAAVDRWRIVGLTIDAQRLLEIRGRRVRGLGGFGNEDGYADLAAIYEELDEVGKIQRRLGCPIIDTTGLALEESATKVIDVVDQRAKTAGTRLRKPAGSYRMRPEGHHHHHH” the “soluble on expression in E. coli” value was “soluble”.
